Twelve molecules from PMC3281842, “Crystal Structure of TDRD3 and Methyl-Arginine Binding Characterization of TDRD3, SMN and SPF30” (PLoS ONE, 2012) can be followed below.

Square brackets hold non-standard residues; d marks the D form. Ends that are not written are not given here. Arg(Me2a) = CN(C)C(=N)NCCC[C@H](N)C(=O)O; Arg(Me2s) = CN=C(NC)NCCC[C@H](N)C(=O)O; Arg(Me) = CNC(=N)NCCC[C@H](N)C(=O)O

The Kd is the constant that tells how readily two partners part at equilibrium. Low values mean a tighter complex, high ones a looser complex.

Common to all, as to details: both partners purified
In one assay the target is T1, SMN (aa 80–170) (human, UniProt Q16637 80-170).
T1 construct: Survival motor neuron protein (SMN), human, residues 80-170, covers the Tudor domain; cloned into the pET28-MHL vector; also called Survival motor neuron protein; source: E. coli BL21 (DE3), purified (Ni-NTA, size exclusion chromatography)
T1 sequence (Q16637 80-170): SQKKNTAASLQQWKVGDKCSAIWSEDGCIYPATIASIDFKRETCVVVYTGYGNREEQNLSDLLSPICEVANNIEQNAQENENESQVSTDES
In words: fluorescence polarisation; fluorescein-labeled peptides; 20 mM Tris pH 7.5, 50 mM NaCl, 1 mM DTT, 0.01% Triton X-100; 25°C; one-site binding model; Kd the average of three independent measurements.

The target of a further assay is T2, SPF30 (aa 65–150) (human, UniProt O75940 65-150).
T2 construct: Splicing factor 30 kDa (SPF30, SMNDC1), human, residues 65-150, covers the Tudor domain; cloned into the pET28-MHL vector; also called Splicing factor 30 kDa; SMNDC1; source: E. coli BL21 (DE3), purified (Ni-NTA, size exclusion chromatography)
T2 sequence (looked up): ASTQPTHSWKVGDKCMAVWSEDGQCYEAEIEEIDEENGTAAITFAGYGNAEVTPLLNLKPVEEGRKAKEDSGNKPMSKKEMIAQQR
The description is as above.

The target of assay [1] is T3, TDRD3 (aa 520–633) (human, UniProt Q9H7E2 520-633).
T3 construct: cloned into the pET28-MHL vector; also called Tudor domain-containing protein 3; source: E. coli BL21 (DE3), purified (Ni-NTA, size exclusion chromatography)
The assay is described as above.

For a further assay, the target named is T4, SND1 (aa 650–910) (UniProt Q7KZF4 650-910).
T4 construct: SND1, residues 650-910, extended Tudor domain; also called extended Tudor domain of SND1
T4 sequence (looked up): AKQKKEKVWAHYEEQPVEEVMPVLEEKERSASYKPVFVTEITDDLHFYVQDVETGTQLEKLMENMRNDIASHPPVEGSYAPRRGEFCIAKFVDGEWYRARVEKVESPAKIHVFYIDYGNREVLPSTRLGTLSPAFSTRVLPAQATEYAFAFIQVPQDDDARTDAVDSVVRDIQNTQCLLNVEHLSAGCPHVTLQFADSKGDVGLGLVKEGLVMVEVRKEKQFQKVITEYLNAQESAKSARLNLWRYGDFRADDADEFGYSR
Described as above.

The target in assay [2] is T5, SMN construct covering only the Tudor domain (residues 82–147) (human, UniProt Q16637 82-147).
T5 construct: Survival motor neuron protein (SMN), human, residues 82-147, only the Tudor domain; also called SMN Tudor domain; source: E. coli BL21 (DE3), purified (Ni-NTA, size exclusion chromatography)
T5 sequence (Q16637 82-147): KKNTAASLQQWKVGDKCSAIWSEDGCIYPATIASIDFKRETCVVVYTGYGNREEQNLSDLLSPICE
The description is as above.

Assay [3] addresses T3, TDRD3 (aa 520–633). In words: ITC; 20 mM Tris pH 8.0, 200 mM NaCl; 25°C; one-site binding model. Background: Isothermal titration calorimetry measures the heat released or taken up as one component is titrated into another.

B1: PIWIL1-R4un (peptide)
peptide: TGRARARARGRARGQE
modifications: also: fluorescein label, position not given here
notes: N-terminal GAR motif stretch of PIWIL1, unmethylated; also called unmethylated PIWIL1 peptide; source: synthetic peptide (Tufts University Core Services)
Take B1: the Kd with SMN (aa 80–170) was over 300 µM; in the assay with SPF30 (aa 65–150), over 500 µM; with TDRD3 (aa 520–633) [1], over 500 µM.

B2: PIWIL1-R4me2a (peptide)
peptide: TG[Arg(Me2a)]ARARARGRARGQE
modifications: also: fluorescein label, position not given here
notes: N-terminal GAR motif stretch of PIWIL1, R4 asymmetrically dimethylated; also called asymmetrical dimethylated PIWIL1 peptide; source: synthetic peptide (Tufts University Core Services)
As to B2, the Kd with SMN (aa 80–170) was 97 ± 3 µM; with SPF30 (aa 65–150), over 400 µM; with TDRD3 (aa 520–633) [1], over 150 µM.

B3: SmD3RSDMA (peptide)
peptide: GGRG[Arg(Me2s)]GRG
modifications: also: fluorescein label, position not given here
notes: GAR motif peptide named after SmD3; also called SmD3 peptide; source: synthetic peptide (Tufts University Core Services)
Consider B3, for which the Kd is 56 ± 8 µM with SND1 (aa 650–910), 94 ± 4 µM with SMN (aa 80–170) and over 400 µM with TDRD3 (aa 520–633) [1].

B4: PIWIL1-R4me2s (peptide)
peptide: TG[Arg(Me2s)]ARARARGRARGQE
modifications: also: fluorescein label, position not given here
notes: N-terminal GAR motif stretch of PIWIL1, R4 symmetrically dimethylated; also called symmetrical dimethylated peptide of the PIWIL1 protein; source: synthetic peptide (Tufts University Core Services)
On to B4, for which the Kd in assay [2] is 46 µM; in the assay with SMN (aa 80–170), 34 ± 2 µM; with SPF30 (aa 65–150), over 200 µM; with TDRD3 (aa 520–633) [1], over 300 µM.

B5: PGM(SmB165SD) (peptide)
peptide: YPPG[Arg(Me2s)]GGPPP
modifications: also: fluorescein label, position not given here
notes: PGM motif stretch of the splicing protein SmB; also called sDMA PGM motif peptide from SmB; source: synthetic peptide (Tufts University Core Services)
On to B5, for which the Kd with SND1 (aa 650–910) was over 500 µM; in the assay with SMN (aa 80–170), over 300 µM.

B6: PGM(SmB214SD) (peptide)
peptide: PPGM[Arg(Me2s)]PPPPG
modifications: also: fluorescein label, position not given here
notes: as for B5
For B6, the Kd in the assay with SMN (aa 80–170) was over 400 µM.

B7: H3R2me1 (peptide)
peptide: A[Arg(Me)]TKQTARKSY
modifications: also: fluorescein label, position not given here
notes: histone H3 N-terminal tail; C-terminal tyrosine printed at the end of the peptide; also called histone H3R2 peptide, monomethylated; source: synthetic peptide (Tufts University Core Services)
As to B7, the Kd with SND1 (aa 650–910) and in the assay with SMN (aa 80–170) was over 300 µM in each case.

B8: H3R2me2a (peptide)
peptide: A[Arg(Me2a)]TKQTARKSY
modifications: also: fluorescein label, position not given here
notes: histone H3 N-terminal tail; C-terminal tyrosine printed at the end of the peptide; also called histone H3R2 peptide, asymmetrically dimethylated; source: synthetic peptide (Tufts University Core Services)
B8: the values for the Kd with SND1 (aa 650–910) and with SMN (aa 80–170) were over 300 µM and over 200 µM, respectively.

B9: PIWIL1_R4me2a peptide (TGRme2aARARA) (peptide)
peptide: TG[Arg(Me2a)]ARARA
notes: N-terminal GAR motif stretch of PIWIL1, R4 asymmetrically dimethylated; also called PIWIL1_R4me2a peptide of the ITC measurement; source: synthetic peptide (Tufts University Core Services)
For B9, the binding result in the assay with TDRD3 (aa 520–633) [3] was “binds”.

B10: PGM(SmB221SD) (peptide)
peptide: PPGM[Arg(Me2s)]GPPP
modifications: also: fluorescein label, position not given here
notes: as for B5
Consider B10, for which the Kd in the assay with SMN (aa 80–170) was over 500 µM.

B11: PIWIL1-R4me1 (peptide)
peptide: TG[Arg(Me)]ARARARGRARGQE
modifications: also: fluorescein label, position not given here
notes: N-terminal GAR motif stretch of PIWIL1, R4 monomethylated; also called monomethylated PIWIL1 peptide; source: synthetic peptide (Tufts University Core Services)
For the molecule B11, the results for the Kd with SMN (aa 80–170), with SPF30 (aa 65–150) and with TDRD3 (aa 520–633) [1] were over 150 µM, over 500 µM and over 500 µM, respectively.

B12: H3R2me2s (peptide)
peptide: A[Arg(Me2s)]TKQTARKSY
modifications: also: fluorescein label, position not given here
notes: histone H3 N-terminal tail; C-terminal tyrosine printed at the end of the peptide; also called histone H3R2 peptide, symmetrically dimethylated; source: synthetic peptide (Tufts University Core Services)
B12 came in with a Kd with SMN (aa 80–170) of over 150 µM.
